From the DeepSol protein solubility set

Assay: soluble on expression in E. coli; label from the status in PepcDB or PDB records
In the case of “HHHHDYDIPTTENLYFQGHMTIHKKGQAHWEGDIKRGKGTVSTESGVLNQQPYGFNTRFEGEKGTNPEELIGAAHAACFSMALSLMLGEAGFTPTSIDTTADVSLDKVDAGFAITKIALKSEVAVPGIDASTFDGIIQKAKAGCPVSQVLKAEITLDYQLKS”, the “soluble on expression in E. coli” value is reported as “soluble”. For “HHHHHHDEKRRPKRREIPLKVLVKAVLFACMLMRKTMASRVRVTILFATETGKSEALAWDLGALFSCAFNPKVVCMDKYRLSCLEEERLLLVVTSTFGNGDCPGNGEKLKKSLFMLKELNNKFRYAVFGLGSSMYPRFCAFAHDIDQKLSHLGASQLTPMGEGDELSGQEDAFRSWAVQTFKAACETFDVRGKQHIQIPKLYTSNVTWDPHHYRLVQDS”, the “soluble on expression in E. coli” value was “soluble”. For “HHHHHHMAEKKQWHETLHDQFGQYFAVDNVLYHEKTDHQDLIIFENAAFGRVMALDGVVQTTERDEFIYHEMMTHVPLLAHGHAKHVLIIGGGDGAMLREVTRHKNVESITMVEIDAGVVSFCRQYLPNHNAGSYDDPRFKLVIDDGVNFVNQTSQTFDVIISDCTDPIGPGESLFTSAFYEGCKRCLNPGGIFVAQNGVCFLQQEEAIDSHRKLSHYFSDVGFYQAAIPTYYGGIMTFAWATDNDALRHLSTEIIQARFLASGLKCRYYNPAIHTAAFALPQYLQDALASQPS”, the “soluble on expression in E. coli” value was “soluble”. With “HHHHHHQVQLVQSGAEVKKPGASVKVSCQASGYRFSHFTVHWVRQAPGQRFEWMGWINPYNGNKEFSAKFQDRVTFTADTSANTAYMELRSLRSADTAVYYCARVGEWGWDDSPYDNYYMDVWGKGTTVIVSSGGGGSGGGGSGGGGSEIVLTQAPGTLSLSPGERATFSCRSSHSIRSRRVAWYQHKPGQAPRLVIHGVSNRASGISDRFSGSGSGTDFTLTITRVEPEDFALYYCQVYGASSYTFGQGTKLERK” the “soluble on expression in E. coli” value was “soluble”. With “HHMAQANFGVVGMAVMGKNLALNVESRGYTVAIYNRTTSKTEEVFKEHQDKNLVFTKTLEEFVGSLEKPRRIMLMVQAGAATDATIKSLLPLLDIGDILIDGGNTHFPDTMRRNAELADSGINFIGTGVSGGEKGALLGPSMMPGGQKEAYDLVAPIFEQIAAKAPQDGKPCVAYMGANGAGHYVKMVHNGIEYGDMQLIAESYDLLKRILGLSNAEIQAIFEEWNEGELDSYLIEITKEVLKRKDDEGEGYIVDKILDKAGNKGTGKWTSESALDLGVPLPLITESVFARYISTYKDERVKASKVLSGPALDFSGDKKEVIEKIRKALYFSKIMSYAQGFAQLRKASEEFDWDLPYGTIAQIWRAGCIIRAEFLQNITDAFDKDSELENLLLDDYFVDITKRYQEAVRDVVSLAVQAGTPIPTFTSAISYYDSYRSENLPANLIQAQRDYFGAHTYERTDKAGIFHYDWYTED” the “soluble on expression in E. coli” value was “soluble”. In the case of “HHMDEEYDVIVLGTGLTECILSGIMSVNGKKVLHMDRNPYYGGESSSITPLEELYKRFQLLEGPPETMGRGRDWNVDLIPKFLMANGQLVKMLLYTEVTRYLDFKVVEGSFVYKGGKIYKVPSTETEALASNLMGMFEKRRFRKFLVFVANFDENDPKTFEGVDPQNTSMRDVYRKFDLGQDVIDFTGHALALYRTDDYLDQPCLETINRIKLYSESLARYGKSPYLYPLYGLGELPQGFARLSAIYGGTYMLNKPVDDIIMENGKVVGVKSEGEVARCKQLICDPSYVPDRVRKAGQVIRIICILSHPIKNTNDANSCQIIIPQNQVNRKSDIYVCMISYAHNVAAQGKYIAIASTTVETTDPEKEVEPALELLEPIDQKFVAISDLYEPIDDGSESQVFCSCSYDATTHFETTCNDIKDIYKRMAGSAFDFENMKRKQNDVFGEADQ”, the “soluble on expression in E. coli” value is reported as “soluble”. In the case of “HKEDKEDFAELSGIAVPAEITAEDGTMFKEALLFTHRGLSGPSVLQISSFWKAGQKVSINLVPNEDIALLLERSLEKHPNQSLKNTLAKVLPKRLVEVLIERKELMDKPLKQFNPKELASVVERLENWSIAPNGTEGYRTAEVTLGGVDTDHLSSKTMECKNIKGLYFIGEVMDVTGWLGGYNFQWCWSSGFVAGQWV”, the “soluble on expression in E. coli” value is reported as “not soluble”. In the case of “HLGEHEVPGHLMDFVTTYSTNLAVPQRRDADDERVLAGKKLFYQANCVACHVPKYVTRRDAAQPEHRFQLIWPYTDMLLHDMGDGLADGVSEEQANGREWRTPPLWGIGLTRLVNPSATWLHDGRARTLLEAVLWHGGEAQAARDRVVAMSPGERADLIRFLESL”, the “soluble on expression in E. coli” value is reported as “not soluble”. For “HLPETIYVIRKGDMVIRPKYDEYQQTNGTEIIRFDQTRKESPFKVQRIIERSCKFYGNNYISKKAETNRITGISSKPPILLTPLFPTYFFPTHSDRQEENIWINMHYIENVKELKNRKSKIIFANGDSLTLNVSFHSLWHQYTNAIIYYYMVDKQSRMKSNNPEQPIDYNQSSLNIFEALSRYSLFEEN”, the “soluble on expression in E. coli” value was “not soluble”. With “HLYPGEVCPGMDIRNNLTRLHELENCSVIEGHLQILLMFKTRPEDFRDLSFPKLIMITDYLLLFRVYGLESLKDLFPNLTVIRGSRLFFNYALVIFEMVHLKELGLYNLMNITRGSVRIEKNNELCYLATIDWSRILDSVEDNHIVLNKDDNEECGDICPGTAKGKTNCPATVINGQFVERCWTHSHCQKVCPTICKSHGCTAEGLCCHSECLGNCSQPDDPTKCVACRNFYLDGRCVETCPPPYYHFQDWRCVNFSFCQDLHHKCKNSRRQGCHQYVIHNNKCIPECPSGYTMNSSNLLCTPCLGPCPKVCHLLEGEKTIDSVTSAQELRGCTVINGSLIINIRGGNNLAAELEANLGLIEEISGYLKIRRSYALVSLSFFRKLRLIRGETLEIGNYSFYALDNQNLRQLWDWSKHNLTITQGKLFFHYNPKLCLSEIHKMEEVSGTKGRQERNDIALKTNGDQASCENELLKFSYIRTSFDKILLRWEPYWPPDFRDLLGFMLFYKEAPYQNVTEFDGQDACGSNSWTVVDIDPPLRSNDPKSQNHPGWLMRGLKPWTQYAIFVKTLVTFSDERRTYGAKSDIIYVQTDATNPSVPLDPISVSNSSSQIILKWKPPSDPNGNITHYLVFWERQAEDSELFELDYCLKGLKLPSRTWSPPFESEDSQKHNQSEYEDSAGECCSCPKTDSQILKELEESSFRKTFEDYLHNVVFVPRPSRKRRSLGDVGNHGNNVPTVAAFPNTSSTSVPTSPEEHRPFEKVVNKESLVISGLRHFTGYRIELQACNQDTPEERCSVAAYVSARTMPEAKADDIVGPVTHEIFENNVVHLMWQEPKEPNGLIVLYEVSYRRYGDEELHLCDTRKHFALERGCRLRGLSPGNYSVRIRATSLAGNGSWTEPTYFYVTDYLDVPSNIAK” the “soluble on expression in E. coli” value was “soluble”. With “HMDIRPRLRIGQINLGGAEDATRELPSIARDLGLDIVLVQEQYSMVGFLAQCGAHPKAGVYIRNRVLPCAVLHHLSSTHITVVHIGGWDLYMVSAYFQYSDPIDPYLHRLGNILDRLRGARVVICADTNAHSPLWHSLPRHYVGRGQEVADRRAKMEDFIGARRLVVHNADGHLPTFSTANGESYVDVTLSTRGVRVSEWRVTNESSSDHRLIVFGVGGGTTGERDEDEEARSDLRPGEP” the “soluble on expression in E. coli” value was “soluble”. In the case of “HMTDLKASSLRALKLMDLTTLNDDDTDEKVIALCHQAKTPVGNTAAICIYPRFIPIARKTLKEQGTPEIRIATVTNFPHGNDDIDIALAETRAAIAYGADEVDVVFPYRALMAGNEQVGFDLVKACKEACAAANVLLKVIIETGELKDEALIRKASEISIKAGADFIKTSTGKVAVNATPESARIMMEVIRDMGVEKTVGFKPAGGVRTAEDAQKYLAIADELFGADWADARHYRFGASSLLASLLKALGHGDGKSASSY”, the “soluble on expression in E. coli” value is reported as “soluble”. With “HSQITLRGNAINTVGELPAVGSPAPAFTLTGGDLGVISSDQFRGKSVLLNIFPSVDTPVSATSVRTFDERAAASGATVLCVSKDLPFAQKRFCGAEGTENVMPASAFRDSFGEDYGVTIADGPMAGLLARAIVVIGADGNVAYTELVPEIAQEPNYEAALAALGA” the “soluble on expression in E. coli” value was “soluble”. For “HTGTVDIVADKTLYQPGETAKMLITFPEPIDEALLTLERDRVEQQSLLSHPANWLTLQRLNDTQYEARVPVSNSFAPNITFSVLYTRNGQYSFQNAGIKVAVPQLDIRVKTDKTHYQPGELVNVELTSSLKGKPVSAQLTVGVVDEMIYALQPE”, the “soluble on expression in E. coli” value was “not soluble”. With “HVYDEQIYRKSSEVLRMSSERIEDELKKIEDVSYEIITDEQIQRILSMQNRDDTYDQYQMKQELWDQLAGYASDEKYIDSIHVIDARGSEYSAGSSSSDLLQQEQEEVFKRAKAKSGRNLWMTLGGSDPVLISARQIRSYHQLSLNGLGMVLIQVNVKQMIRDVPKDWGDSVGDIMIADQGGNLVYTAHASAHVPEAAKETLKHPGYDLIKKNGKRYFISYLQSSYQNWSYYNVIPFDQMFAK” the “soluble on expression in E. coli” value was “not soluble”. With “IDGIFIMDAEGHYLDVNPAICSAIGYTRDEFLALDWGVLSRGVDSGWAAASLARIVGGEPLREERTVWTRNGDQLTVELSAHLLPD” the “soluble on expression in E. coli” value was “not soluble”. For “IGPVQYHIGGTITYTTNKLIDLGATSVLKSGFVGKQQGYPLNSYFGLRYVGKIQTQEELEKYKYYYLDGNGIGMQDNLRLGDHMFEDVNGDGKLDQNDYVYLGTDDPKLSYSINIGLEWKGFDLSAIFQGVGRRTVFRGGEGNETWRVPMSAIYLNTTTQSIGNTWNPENRNAYYPSYTSIGSINNYNYQCSSWSVENGAYLRLKNLTLGYTLPASWLAKTNAISKLRIYFTGADLWEHSKLRDGWDPEASRKTKDLGRYPFNRTFTVGVNATF”, the “soluble on expression in E. coli” value was “not soluble”. For “IIPISNFFQMVDALAEVSSTRIRLQEEILAGSWESLNTGRADLLVCPSLDTLPQEVKAEKIGKMSMIWVAATEHYVHKRSGEFDDSAREKYRIIAIADTAREQPALSINIIQKQPRLTVTNFTAKVEALTAGLGIGTLPRQIALPLIEKGVLKQIEGTEEQPMDIILAWRRNTMGEAKSWCIQYLKKNWKLK”, the “soluble on expression in E. coli” value was “not soluble”. For “IKDPQTGAPVPLRALINNVSGYVIKTEMYTEVKNAKGEWVFKSLGKPGSMHLRPIATPYPVKEWLQPKRYKAHLMGTTYVYDFPELFRQASSSQWKNFSADVKLTDDFFISNELIEDENGELTEVEREPGANAIGMVAFKITVKTPEYPRGRQFVVVANDITFKIGSFGPQEDEFFNKVTEYARKRGIPRIYLAANSGARIGMAEEIVPLFQVAWNDAANPDKGFQYLYLTSEGMETLKKFDKENSVLTERTVINGEERFVIKTIIGSEDGLGVECLRGSGLIAGATSRAYHDIFTITLVTCRSVGIGAYLVRLGQRAIQVEGQPIILTGAPAINKMLGREVYTSNLQLGGTQIMYNNGVSHLTAVDDLAGVEKIVEWMSYVPAKRNMPVPILETKDTWDRPVDFTPTNDETYDVRWMIEGRETESGFEYGLFDKGSFFETLSGWAKGVVVGRARLGGIPLGVIGVETRTVENLIPADPANPNSAETLIQEPGQVWHPNSAFKTAQAINDFNNGEQLPMMILANWRGFSGGQRDMFNEVLKYGSFIVDALVDYKQPIIIYIPPTGELRGGSWVVVDPTINADQMEMYADVNARAGVLEPQGMVGIKFRREKLLDTMNRLDDKYRELRSQLSNKSLAPEVHQQISKQLADRERELLPIYGQISLQFADLHDRSSRMVAKGVISKELEWTEARRFFFWRLRRRLNEEYLIKRLSHQVGEASRLEKIARIRSWYPASVDHEDDRQVATWIEENYKTLDDKLKGLKLESFAQDLAKKIRSDHDNAIDGLSEVIKMLSTDDKEKLLKTLK”, the “soluble on expression in E. coli” value was “soluble”. With “ILLVHGSGYGGWCWDATIRALAAHGARARALDLPGRIFTPGLSLADHAAAILQEIRAPVTLVGHSAGGFSIAAAAEAAAPGLIERLIFLCAYAPRDGASVASMRRAQARQPLRPAIRLAPDRLSYSFDPDLAGEALFHDCPPEVRAAALARMGAEPVGPQEERIRLSARYHALPKHYIRCLEDRAIPPETQEAMTADWPAGSVSTLPAGHSPFLSCPEALAKRLISVAAN” the “soluble on expression in E. coli” value was “not soluble”.
